Reference: patent publication US20250043302A1, “MUTATED HYDROXYPHENYLPYRUVATE DIOXYGENASE POLYPEPTIDE, AND CODING GENE AND USE THEREOF” (BEIJING DABEINONG BIOTECHNOLOGY CO., LTD., priority 2021, published 2025)

Experiments:
Type in all cases: in vivo
[1] = system: Arabidopsis thaliana T1 plants; test: Mesotrione tolerance of transgenic Arabidopsis thaliana T1 plants (spray, bleached leaf area grade, damage score); set-up: Scores: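 damage score 0-100 computed as Σ(N×S)/(T×M)×100 over grades 0-3 with higher meaning more damage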; conditions: Arabidopsis thaliana T1 plants; for Grade 0 (classification and statistics of the grade of pesticide damage; number of plants) / Grade 1 (classification and statistics of the grade of pesticide damage; number of plants) / Grade 2 (classification and statistics of the grade of pesticide damage; number of plants) / Grade 3 (classification and statistics of the grade of pesticide damage; number of plants): 16 plants
Outline: (§1)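 Damage was assessed by bleaching grade (0 none; 1 <50%; 2 >50%; 3 100% of leaf area) one week after spraying. Sprays on 18-day-old T1 and wild-type plants used field-rate multiples: topramezone 25–200, isoxaflutole 35–280, mesotrione 52.5–420 g ai/ha.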

[2] = system: Arabidopsis thaliana T1 plants; test: Isoxaflutole tolerance of transgenic Arabidopsis thaliana T1 plants (spray, bleached leaf area grade, damage score); set-up: Scores (pesticide damage): scale not given here; conditions: spray, Arabidopsis thaliana T1 plants; for Classification and statistics of the grade of pesticide damage: Grade 0 (number of plants) / Classification and statistics of the grade of pesticide damage: Grade 1 (number of plants) / Classification and statistics of the grade of pesticide damage: Grade 2 (number of plants) / Classification and statistics of the grade of pesticide damage: Grade 3 (number of plants): 16 plants
Outline: as §1

[3] = system: Arabidopsis thaliana T1 plants; test: Topramezone tolerance of transgenic Arabidopsis thaliana T1 plants (spray, bleached leaf area grade, damage score); conditions: 7 DAT, Table 4; for Classification and statistics of the grade of pesticide damage: Grade 0 / Classification and statistics of the grade of pesticide damage: Grade 1 / Classification and statistics of the grade of pesticide damage: Grade 2 / Classification and statistics of the grade of pesticide damage: Grade 3: number of plants; for Scores: pesticide damage score 0-100
Outline: as §1

[4] = isoxaflutole 35 g ai/ha (0.5x field concentration)
[5] = isoxaflutole 70 g ai/ha (1x field concentration)

B1: GsHPPDm-F383W-02: nucleotide sequence encoding Gossypium hirsutum HPPD with F383W; vector DBN11740 (nucleic acid)
DNA: ATGGTTCAAACAAATCAATCTGGTTCTGGGAATGATTTCAAGCTGGTTGGTTTCTCAAATTTTGTGCGTAGCAATCCCAAATCAGACCGCTTCACGGTCAAGAGATTCCACCACATTGAATTTTGGTGCACTGATGCCACTAATGTGGCGAGGAGGTTTTCATGGGGTTTAGGGATGCAGTTCGTCGCCAAGAGTGACCTCTCCACAGGAAATTTGACGCATGCAAGCTACCTGCTGCGGAGCCGCGACTTGAATTTCCTGTTTACAGCACCATATTCACCCAGTATTGCAGTTGCTCAAAACCTTTCGCCACAAAGCACTGCTTCCATACCTTCATTTGATCACTCGCTTTGTCGGTCCTTTGCTGCAACACATGGACTTGGCGTCAGAGCAATTGCCATCGAGGTGGACGACGCCGAAACTGCCTTCACCACGAGCGTGACACATGGCGCGCTCCCTTTTTGTCCACCAACACCACTAGGAGATGTGGCTACAATTGCTGAAGTTAAATTATATGGTGATGTTGTGCTCAGATATGTTTCTTACACCACAACCATCAACTCCGACCATGATTTTCTGCCTGGTTTTGAGAAGATTGAAGATACTCTATCGTATCCTTTGGATTATGGCCTGCGTCGGCTCGATCATGCTGTTGGCAACGTACCTGAATTAGGTCCTGCTGTATCTTATGTGAAATCTTTTACTGGGTTCCATGAGTTTGCAGAGTTCACCGCTGAGGATGTAGGAACAAGTGAATCTGGGCTGAACTCAGTTGTTTTGGCCAACAATGAGGAAATGGTCCTCTTACCAATGAACGAGCCGGTGTTCGGCACTAAGCGCAAATCTCAAATACAGACCTACTTGGAGCACAATGAAGGAGCTGGTGTGCAGCACCTCGCCCTCGTCTCGGAGGACATCTTCAAAACTTTAAGGGAGATGAGGAAACGATCCTTTGTGGGAGGATTTGAATTCATGCCTTCTCCGCCGCCGACATACTACAAGAAGCTCAAGCAGCGCGCGGGGGACATTTTGTCTGATGAGCAGATCAAGGAGTGTGAAGAGCTTGGGATTCTTGTTGATAGAGATGATCAAGGAACGCTTCTGCAGATATTTACCAAGCCCGTCGGCGACCGGCCTACTATATGGATTGAGATCATCCAGAGAATTGGTTGCATGGTGAAGGATGAAGAAGGGAAACAGTACCAGAAGGGCGGCTGCGGCGGGTTTGGAAAAGGAAACTTCAGTGAGCTGTTTAAAAGTATAGAGGAGTATGAAAAGAGCTTGGAAGCAAAACAATCACAAAATCCATGA
modifications: GsHPPDm-F383W-02 Nucleotide Sequence
notes: vector DBN11740
Which results are given for B1?
Resistance evaluation ([1]; mesotrione 52.5 g ai/ha): Non-resistant; Scores ([1]; mesotrione 52.5 g ai/ha): 100; Grade 0 (classification and statistics of the grade of pesticide damage; number of plants) ([1]; mesotrione 52.5 g ai/ha): 0; Grade 1 (classification and statistics of the grade of pesticide damage; number of plants) ([1]; mesotrione 52.5 g ai/ha): 0; Grade 2 (classification and statistics of the grade of pesticide damage; number of plants) ([1]; mesotrione 52.5 g ai/ha): 0; Grade 3 (classification and statistics of the grade of pesticide damage; number of plants) ([1]; mesotrione 52.5 g ai/ha): 16; Resistance evaluation ([1]; mesotrione 105 g ai/ha): Non-resistant; Scores ([1]; mesotrione 105 g ai/ha): 100; Grade 0 (classification and statistics of the grade of pesticide damage; number of plants) ([1]; mesotrione 105 g ai/ha): 0; Grade 1 (classification and statistics of the grade of pesticide damage; number of plants) ([1]; mesotrione 105 g ai/ha): 0; Grade 2 (classification and statistics of the grade of pesticide damage; number of plants) ([1]; mesotrione 105 g ai/ha): 0; Grade 3 (classification and statistics of the grade of pesticide damage; number of plants) ([1]; mesotrione 105 g ai/ha): 16; Resistance evaluation [2, 4]: Non-resistant; Scores (pesticide damage) [2, 4]: 73; Classification and statistics of the grade of pesticide damage: Grade 0 (number of plants) [2, 4]: 0; Classification and statistics of the grade of pesticide damage: Grade 1 (number of plants) [2, 4]: 2; Classification and statistics of the grade of pesticide damage: Grade 2 (number of plants) [2, 4]: 9; Classification and statistics of the grade of pesticide damage: Grade 3 (number of plants) [2, 4]: 5; Resistance evaluation [2, 5]: Non-resistant; Scores (pesticide damage) [2, 5]: 100; Classification and statistics of the grade of pesticide damage: Grade 0 (number of plants) [2, 5]: 0; Classification and statistics of the grade of pesticide damage: Grade 1 (number of plants) [2, 5]: 0; Classification and statistics of the grade of pesticide damage: Grade 2 (number of plants) [2, 5]: 0; Classification and statistics of the grade of pesticide damage: Grade 3 (number of plants) [2, 5]: 16; Classification and statistics of the grade of pesticide damage: Grade 0 ([3]; topramezone 25 g ai/ha (1×)): 0; Classification and statistics of the grade of pesticide damage: Grade 1 ([3]; topramezone 25 g ai/ha (1×)): 3; Classification and statistics of the grade of pesticide damage: Grade 2 ([3]; topramezone 25 g ai/ha (1×)): 9; Classification and statistics of the grade of pesticide damage: Grade 3 ([3]; topramezone 25 g ai/ha (1×)): 4; Classification and statistics of the grade of pesticide damage: Grade 0 ([3]; topramezone 100 g ai/ha (4×)): 0; Classification and statistics of the grade of pesticide damage: Grade 1 ([3]; topramezone 100 g ai/ha (4×)): 0; Classification and statistics of the grade of pesticide damage: Grade 2 ([3]; topramezone 100 g ai/ha (4×)): 0; Classification and statistics of the grade of pesticide damage: Grade 3 ([3]; topramezone 100 g ai/ha (4×)): 16; Scores ([3]; topramezone 25 g ai/ha (1×)): 69; Scores ([3]; topramezone 100 g ai/ha (4×)): 100; Resistance evaluation ([3]; topramezone 25 g ai/ha (1×)): non-resistant (non-resistant plants (scores 68-100)); Resistance evaluation ([3]; topramezone 100 g ai/ha (4×)): non-resistant (non-resistant plants (scores 68-100))
